Assay results as given in article PMC11724365, “Novel archaeal ribosome dimerization factor facilitating unique 30S–30S dimerization” (Nucleic Acids Research, 2025).

Target: the molecule itself
Assay: cryo-EM structure; 1 uM P. furiosus 30S subunits with 5 uM aRDF (1:5) in 20 mM HEPES-KOH pH 7.0, 12 mM MgCl2, 100 mM NH4Cl, 0.5 mM EDTA; 15 min at 70 °C before freezing; Structures I and II at 3.2 Å

B1: archaeal ribosome dimerization factor (aRDF) (natural protein, Pyrococcus furiosus)
chain: MKVVGIKGSVSYLQALKYLKTKKVTKRLKEIEKLVDTLITLAPYAPEGSKIETIRKNYAKISFNKIKTVSRSKIGSPRIKSIMLLLWNFGLLDVKIIENSWYVRKTKLASLLEENFKDLSPSEKLKVYLLGGLLVDTPARFVYRCTLNGVEDYKGVKKAILGYLSDQRSNSLIIGLSNMLESIKFIEEAQAYSGKKEYIGLVDVAFYGLSGLYLDVKRESGKLTVKPNFRELRALYEIDKSVATGSDYGLSISKEILENLANTKRRKTIFSEEVQELLVNVIKENAISISQDLQNMYGII
notes: aRDF (PF0560 protein) of Pyrococcus furiosus; modelled in PDB 9FNY and 9FNZ with poorly defined loops omitted; Forms homodimers (monomers A and B); two homodimers bridge two 30S subunits in the cryo-EM structures; also called PF0560; PF0560 protein; source: E. coli BL21(DE3), purified (heat treatment, Ni-NTA, heparin)
stoichiometry N: 2
